B1: Beta-arrestin-1 (Homo sapiens), P49407 (parent)
chain: MGDKGTRVFKKASPNGKLTVYLGKRDFVDHIDLVDPVDGVVLVDPEYLKERRVYVTLTCAFRYGREDLDVLGLTFRKDLFVANVQSFPPAPEDKKPLTRLQERLIKKLGEHAYPFTFEIPPNLPCSVTLQPGPEDTGKACGVDYEVKAFCAENLEEKIHKRNSVRLVIRKVQYAPERPGPQPTAETTRQFLMSDKPLHLEASLDKEIYYHGEPISVNVHVTNNTNKTVKKIKISVRQYADICLFNTAQYKCPVAMEEADDTVAPSSTFCKVYTLTPFLANNREKRGLALDGKLKHEDTNLASSTLLREGANREILGIIVSYKVKVKLVVSRGGLLGDLASSDVAVELPFTLMHPKPKEEPPHREVPENETPVDTNLIELDTNDDDIVFEDFARQRLKGMKDDKEEEEDGTGSPQLNNR

Variants of: B1
Conditions: with gnas1_human GNAS

effect of a mutation on the interaction	Variant
decreasing interaction	MGDKGTRVFKKASPNGKLTVYLGKRDFVDHIDKVDPVDGVVLVDPEYLKERRVYVTLTCAFRYGREDLDVLGLTFRKDLFVANVQSFPPAPEDKKPLTRLQERLIKKLGEHAYPFTFEIPPNLPCSVTLQPGPEDTGKACGVDYEVKAFCAENLEEKIHKRNSVRLVIRKVQYAPERPGPQPTAETTRQFLMSDKPLHLEASLDKEIYYHGEPISVNVHVTNNTNKTVKKIKISVRQYADICLFNTAQYKCPVAMEEADDTVAPSSTFCKVYTLTPFLANNREKRGLALDGKLKHEDTNLASSTLLREGANREILGIIVSYKVKVKLVVSRGGLLGDLASSDVAVELPFTLMHPKPKEEPPHREVPENETPVDTNLIELDTNDDDIVFEDFARQRLKGMKDDKEEEEDGTGSPQLNNR [L33K]

— IntAct's records for PubMed 23353685
